± gives the uncertainty stated by the source.
B1: Neutrophil cytosol factor 2, residues 456 to 514; numbered along this chain, P19878 (parent)
chain: LKKGSQVEALFSYEATQPEDLEFQEGDIILVLSKVNEEWLEGECKGKVGIFPKVFVEDC

Variants of: B1
Assay: abundance fitness (aPCA) (normalised: wild type 0, dead -1); higher = more abundant; growth selection in yeast, the domain comes from the species named
Settings: Homo sapiens

First: LKKGSQVEALFSYEATQPEDLEFQEGDIILVLSKVNEEWLEGECDGKVGIFPKVFVEDC [K45D]
Second: LKKGSQVEALFSYEATQPEDLEFQEGDIILVLSKVNEEWLEGECFGKVGIFPKVFVEDC [K45F]
The abundance fitness of the first is higher: 0.065 ± 0.12 for the first, -0.669 ± 0.15 for the second.

LKKGSQVEALFSYEATQPEDLEFQEGDIILVLSKVNEEWLEGECQGKVGIFPKVFVEDC [K45Q] and LKKGSQVEALFSYEATQPEDLEFQEGDIILVLSKVNEEWLEGECCGKVGIFPKVFVEDC [K45C] are within error of each other in abundance fitness: -0.577 ± 0.5 for the first, -0.191 ± 0.14 for the second.

LKKGSQVEALFSYEATQPEDLEFQEGDIILVLSKVNEEWLEGECVGKVGIFPKVFVEDC [K45V] and LKKGSQVEALFSYEATQPEDLEFQEGDIILVLSKVNEEWLEGECSGKVGIFPKVFVEDC [K45S] are within error of each other in abundance fitness: -0.734 ± 0.17 for the first, -0.691 ± 0.17 for the second.

LKKGSQVEALFSYEATQPEDLEFQEGDIILVLSKVNEEWLEGECWGKVGIFPKVFVEDC [K45W] and LKKGSQVEALFSYEATQPEDLEFQEGDIILVLSKVNEEWLEGECRGKVGIFPKVFVEDC [K45R] are within error of each other in abundance fitness: -0.125 ± 0.25 for the first, 0.012 ± 0.11 for the second.

LKKGSQVEALFSYEATQPEDLEFQEGDIILVLSKVNEEWLEGECAGKVGIFPKVFVEDC [K45A] and LKKGSQVEALFSYEATQPEDLEFQEGDIILVLSKVNEEWLEGECIGKVGIFPKVFVEDC [K45I] are within error of each other in abundance fitness: -0.765 ± 0.19 for the first, -0.937 ± 0.18 for the second.

LKKGSQVEALFSYEATQPEDLEFQEGDIILVLSKVNEEWLEGECPGKVGIFPKVFVEDC [K45P] and LKKGSQVEALFSYEATQPEDLEFQEGDIILVLSKVNEEWLEGECTGKVGIFPKVFVEDC [K45T] are within error of each other in abundance fitness: -0.904 ± 0.28 for the first, -0.562 ± 0.19 for the second.

LKKGSQVEALFSYEATQPEDLEFQEGDIILVLSKVNEEWLEGECHGKVGIFPKVFVEDC [K45H] and LKKGSQVEALFSYEATQPEDLEFQEGDIILVLSKVNEEWLEGECNGKVGIFPKVFVEDC [K45N] are within error of each other in abundance fitness: 0.232 ± 0.12 for the first, 0.203 ± 0.096 for the second.

LKKGSQVEALFSYEATQPEDLEFQEGDIILVLSKVNEEWLEGECGGKVGIFPKVFVEDC [K45G] and LKKGSQVEALFSYEATQPEDLEFQEGDIILVLSKVNEEWLEGECEGKVGIFPKVFVEDC [K45E] are within error of each other in abundance fitness: -0.61 ± 0.16 for the first, -0.905 ± 0.49 for the second.

First: LKKGSQVEALFSYEATQPEDLEFQEGDIILVLSKVNEEWLEGECKGKVNIFPKVFVEDC [G49N]
Second: LKKGSQVEALFSYEATQPEDLEFQEGDIILVLSKVNEEWLEGECKGKVFIFPKVFVEDC [G49F]
The abundance fitness of the first is lower: -0.735 ± 0.15 for the first, -0.469 ± 0.11 for the second.

LKKGSQVEALFSYEATQPEDLEFQEGDIILVLSKVNEEWLEGECKGKVEIFPKVFVEDC [G49E] and LKKGSQVEALFSYEATQPEDLEFQEGDIILVLSKVNEEWLEGECKGKVDIFPKVFVEDC [G49D] are within error of each other in abundance fitness: -0.63 ± 0.38 for the first, -0.478 ± 0.13 for the second.

Compared with LKKGSQVEALFSYEATQPEDLEFQEGDIILVLSKVNEEWLEGECKGKVIIFPKVFVEDC [G49I], LKKGSQVEALFSYEATQPEDLEFQEGDIILVLSKVNEEWLEGECKGKVMIFPKVFVEDC [G49M] is higher in abundance fitness: -0.427 ± 0.11 for the first, -0.075 ± 0.22 for the second.

First: LKKGSQVEALFSYEATQPEDLEFQEGDIILVLSKVNEEWLEGECKGKVCIFPKVFVEDC [G49C]
Second: LKKGSQVEALFSYEATQPEDLEFQEGDIILVLSKVNEEWLEGECKGKVKIFPKVFVEDC [G49K]
The abundance fitness of the first is lower: -0.756 ± 0.17 for the first, 0.002 ± 0.19 for the second.

LKKGSQVEALFSYEATQPEDLEFQEGDIILVLSKVNEEWLEGECKGKVAIFPKVFVEDC [G49A] and LKKGSQVEALFSYEATQPEDLEFQEGDIILVLSKVNEEWLEGECKGKVHIFPKVFVEDC [G49H] are within error of each other in abundance fitness: -0.59 ± 0.18 for the first, -0.893 ± 0.28 for the second.

LKKGSQVEALFSYEATQPEDLEFQEGDIILVLSKVNEEWLEGECKGKVLIFPKVFVEDC [G49L] and LKKGSQVEALFSYEATQPEDLEFQEGDIILVLSKVNEEWLEGECKGKVPIFPKVFVEDC [G49P] are within error of each other in abundance fitness: -0.42 ± 0.12 for the first, -0.722 ± 0.3 for the second.

LKKGSQVEALFSYEATQPEDLEFQEGDIILVLSKVNEEWLEGECKMKVGIFPKVFVEDC [G46M] and LKKGSQVEALFSYEATQPEDLEFQEGDIILVLSKVNEEWLEGECKYKVGIFPKVFVEDC [G46Y] are within error of each other in abundance fitness: -0.599 ± 0.34 for the first, -0.352 ± 0.14 for the second.

First: LKKGSQVEALFSYEATQPEDLEFQEGDIILVLSKVNEEWLEGECKRKVGIFPKVFVEDC [G46R]
Second: LKKGSQVEALFSYEATQPEDLEFQEGDIILVLSKVNEEWLEGECKSKVGIFPKVFVEDC [G46S]
The abundance fitness of the first is higher: -0.392 ± 0.23 for the first, -0.928 ± 0.18 for the second.

LKKGSQVEALFSYEATQPEDLEFQEGDIILVLSKVNEEWLEGECKKKVGIFPKVFVEDC [G46K] and LKKGSQVEALFSYEATQPEDLEFQEGDIILVLSKVNEEWLEGECKAKVGIFPKVFVEDC [G46A] are within error of each other in abundance fitness: -0.732 ± 0.42 for the first, -0.313 ± 0.15 for the second.

Going from LKKGSQVEALFSYEATQPEDLEFQEGDIILVLSKVNEEWLEGECKHKVGIFPKVFVEDC [G46H] to LKKGSQVEALFSYEATQPEDLEFQEGDIILVLSKVNEEWLEGECKLKVGIFPKVFVEDC [G46L], the abundance fitness rises from -0.84 ± 0.34 to -0.226 ± 0.12.

LKKGSQVEALFSYEATQPEDLEFQEGDIILVLSKVNEEWLEGECKCKVGIFPKVFVEDC [G46C] and LKKGSQVEALFSYEATQPEDLEFQEGDIILVLSKVNEEWLEGECKPKVGIFPKVFVEDC [G46P] are within error of each other in abundance fitness: -0.479 ± 0.2 for the first, -0.747 ± 0.47 for the second.

Going from LKKGSQVEALFSYEATQPEDLEFQEGDIILVLSKVNEEWLEGECKIKVGIFPKVFVEDC [G46I] to LKKGSQVEALFSYEATQPEDLEFQEGDIILVLSKVNEEWLEGECKNKVGIFPKVFVEDC [G46N], the abundance fitness rises from -0.615 ± 0.15 to 0.219 ± 0.11.

LKKGSQVEALFSYEATQPEDLEFQEGDIILVLSKVNEEWLEGECKEKVGIFPKVFVEDC [G46E] and LKKGSQVEALFSYEATQPEDLEFQEGDIILVLSKVNEEWLEGECKVKVGIFPKVFVEDC [G46V] are within error of each other in abundance fitness: -0.189 ± 0.28 for the first, -0.585 ± 0.15 for the second.

LKKGSQVEALFSYEATQPEDLEFQEGDIILVLSKVNEEWLEGECKDKVGIFPKVFVEDC [G46D] and LKKGSQVEALFSYEATQPEDLEFQEGDIILVLSKVNEEWLEGECKTKVGIFPKVFVEDC [G46T] are within error of each other in abundance fitness: -0.703 ± 0.19 for the first, -0.904 ± 0.27 for the second.

Variant LKKGSQVEALFSYEATQPEDLEFQEGDIILVLSKVNEEWLEGECKWKVGIFPKVFVEDC [G46W] has an abundance fitness of -0.346 ± 0.21.
